According to PMC6056499, “A systematic dissection of sequence elements determining β-Klotho and FGF interaction and signaling” (Scientific Reports, 2018):

T1: human β-Klotho extracellular domain (aa1–992) fused with a 6 × His tag at the C-terminus (human, UniProt Q86Z14 1-992, biotin (EZ-Link Sulfo-NHS-LC-Biotin) in the bio-layer interferometry)
T1 construct: signal peptide in the construct; human β-Klotho extracellular domain, aa1–992 of the full-length protein aa1-1044 (NM_175737); also called β-Klotho ECD 6 × His; soluble human β-Klotho; source: CHO-EBNA1, transiently transfected, conditioned medium; not shown: His6, C-terminal, kept
T1 sequence (looked up): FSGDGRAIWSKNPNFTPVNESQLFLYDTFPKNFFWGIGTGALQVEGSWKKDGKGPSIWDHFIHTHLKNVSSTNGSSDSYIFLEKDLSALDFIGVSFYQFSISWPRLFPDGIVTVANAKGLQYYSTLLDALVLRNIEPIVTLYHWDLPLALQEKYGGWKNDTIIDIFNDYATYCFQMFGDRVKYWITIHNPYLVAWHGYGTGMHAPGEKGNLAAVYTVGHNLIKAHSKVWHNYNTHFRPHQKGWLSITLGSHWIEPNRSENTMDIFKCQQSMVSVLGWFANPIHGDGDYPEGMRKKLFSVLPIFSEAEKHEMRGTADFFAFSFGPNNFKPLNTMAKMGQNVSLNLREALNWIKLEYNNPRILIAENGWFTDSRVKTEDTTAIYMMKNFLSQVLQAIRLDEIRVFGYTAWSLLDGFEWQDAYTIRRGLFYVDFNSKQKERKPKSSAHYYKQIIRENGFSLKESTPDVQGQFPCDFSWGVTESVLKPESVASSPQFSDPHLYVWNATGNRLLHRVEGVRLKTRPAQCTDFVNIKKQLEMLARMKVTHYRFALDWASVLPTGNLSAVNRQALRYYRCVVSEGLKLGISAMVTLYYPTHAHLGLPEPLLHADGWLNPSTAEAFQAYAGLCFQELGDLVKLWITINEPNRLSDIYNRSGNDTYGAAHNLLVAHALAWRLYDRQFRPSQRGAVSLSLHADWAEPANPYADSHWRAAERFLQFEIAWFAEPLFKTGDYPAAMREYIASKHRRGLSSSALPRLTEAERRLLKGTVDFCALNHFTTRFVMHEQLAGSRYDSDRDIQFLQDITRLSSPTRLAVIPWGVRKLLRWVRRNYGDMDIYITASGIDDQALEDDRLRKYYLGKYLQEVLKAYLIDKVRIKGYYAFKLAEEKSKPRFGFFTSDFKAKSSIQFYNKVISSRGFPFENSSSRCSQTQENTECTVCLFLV

B1: mature human FGF21 polypeptide fused with the human Fc fragment at the N-terminus (Fc-FGF21), wild type (Fc fusion, UniProt Q9NSA1 29-209, looked up)
chain: HPIPDSSPLLQFGGQVRQRYLYTDDAQQTEAHLEIREDGTVGGAADQSPESLLQLKALKPGVIQILGVKTSRFLCQRPDGALYGSLHFDPEACSFRELLLEDGYNVYQSEAHGLPLHLPGNKSPHRDPAPRGPARFLPLPGLPPALPEPPGILAPQPPDVGSSDPLSMVGPSQGRSPSYAS
notes: human FGF21, mature polypeptide (NM_019113); also called WT Fc-FGF21; source: HEK293-EBNA1, transiently transfected, purified (protein A, MabSelect SuRe); not shown: Fc (human), N-terminal, kept
B2: Fc-FGF21, 192D to alanine (Fc fusion, human, UniProt Q9NSA1 29-209, looked up)
chain: HPIPDSSPLLQFGGQVRQRYLYTDDAQQTEAHLEIREDGTVGGAADQSPESLLQLKALKPGVIQILGVKTSRFLCQRPDGALYGSLHFDPEACSFRELLLEDGYNVYQSEAHGLPLHLPGNKSPHRDPAPRGPARFLPLPGLPPALPEPPGILAPQPPDVGSSAPLSMVGPSQGRSPSYAS
notes: human FGF21, mature polypeptide (NM_019113); also called D192A; source: HEK293-EBNA1, transiently transfected, purified (protein A); not shown: Fc (human), N-terminal, kept
B3: Fc-FGF21, 192D to arginine (Fc fusion, human, UniProt Q9NSA1 29-209, looked up)
chain: HPIPDSSPLLQFGGQVRQRYLYTDDAQQTEAHLEIREDGTVGGAADQSPESLLQLKALKPGVIQILGVKTSRFLCQRPDGALYGSLHFDPEACSFRELLLEDGYNVYQSEAHGLPLHLPGNKSPHRDPAPRGPARFLPLPGLPPALPEPPGILAPQPPDVGSSRPLSMVGPSQGRSPSYAS
notes: human FGF21, mature polypeptide (NM_019113); also called D192R; source: HEK293-EBNA1, transiently transfected, purified (protein A); not shown: Fc (human), N-terminal, kept
B4: Fc-FGF21, 193P to alanine (Fc fusion, human, UniProt Q9NSA1 29-209, looked up)
chain: HPIPDSSPLLQFGGQVRQRYLYTDDAQQTEAHLEIREDGTVGGAADQSPESLLQLKALKPGVIQILGVKTSRFLCQRPDGALYGSLHFDPEACSFRELLLEDGYNVYQSEAHGLPLHLPGNKSPHRDPAPRGPARFLPLPGLPPALPEPPGILAPQPPDVGSSDALSMVGPSQGRSPSYAS
notes: human FGF21, mature polypeptide (NM_019113); also called P193A; source: HEK293-EBNA1, transiently transfected, purified (protein A); not shown: Fc (human), N-terminal, kept
B5: Fc-FGF21, 193P to arginine (Fc fusion, human, UniProt Q9NSA1 29-209, looked up)
chain: HPIPDSSPLLQFGGQVRQRYLYTDDAQQTEAHLEIREDGTVGGAADQSPESLLQLKALKPGVIQILGVKTSRFLCQRPDGALYGSLHFDPEACSFRELLLEDGYNVYQSEAHGLPLHLPGNKSPHRDPAPRGPARFLPLPGLPPALPEPPGILAPQPPDVGSSDRLSMVGPSQGRSPSYAS
notes: human FGF21, mature polypeptide (NM_019113); also called P193R; source: HEK293-EBNA1, transiently transfected, purified (protein A); not shown: Fc (human), N-terminal, kept
B6: Fc-FGF21, 194L to alanine (Fc fusion, human, UniProt Q9NSA1 29-209, looked up)
chain: HPIPDSSPLLQFGGQVRQRYLYTDDAQQTEAHLEIREDGTVGGAADQSPESLLQLKALKPGVIQILGVKTSRFLCQRPDGALYGSLHFDPEACSFRELLLEDGYNVYQSEAHGLPLHLPGNKSPHRDPAPRGPARFLPLPGLPPALPEPPGILAPQPPDVGSSDPASMVGPSQGRSPSYAS
notes: human FGF21, mature polypeptide (NM_019113); also called L194A; source: HEK293-EBNA1, transiently transfected, purified (protein A); not shown: Fc (human), N-terminal, kept
B7: Fc-FGF21, 194L to arginine (Fc fusion, human, UniProt Q9NSA1 29-209, looked up)
chain: HPIPDSSPLLQFGGQVRQRYLYTDDAQQTEAHLEIREDGTVGGAADQSPESLLQLKALKPGVIQILGVKTSRFLCQRPDGALYGSLHFDPEACSFRELLLEDGYNVYQSEAHGLPLHLPGNKSPHRDPAPRGPARFLPLPGLPPALPEPPGILAPQPPDVGSSDPRSMVGPSQGRSPSYAS
notes: human FGF21, mature polypeptide (NM_019113); also called L194R; source: HEK293-EBNA1, transiently transfected, purified (protein A); not shown: Fc (human), N-terminal, kept
B8: Fc-FGF21, 196M to alanine (Fc fusion, human, UniProt Q9NSA1 29-209, looked up)
chain: HPIPDSSPLLQFGGQVRQRYLYTDDAQQTEAHLEIREDGTVGGAADQSPESLLQLKALKPGVIQILGVKTSRFLCQRPDGALYGSLHFDPEACSFRELLLEDGYNVYQSEAHGLPLHLPGNKSPHRDPAPRGPARFLPLPGLPPALPEPPGILAPQPPDVGSSDPLSAVGPSQGRSPSYAS
notes: human FGF21, mature polypeptide (NM_019113); also called M196A; source: HEK293-EBNA1, transiently transfected, purified (protein A); not shown: Fc (human), N-terminal, kept
B9: Fc-FGF21, 196M to arginine (Fc fusion, human, UniProt Q9NSA1 29-209, looked up)
chain: HPIPDSSPLLQFGGQVRQRYLYTDDAQQTEAHLEIREDGTVGGAADQSPESLLQLKALKPGVIQILGVKTSRFLCQRPDGALYGSLHFDPEACSFRELLLEDGYNVYQSEAHGLPLHLPGNKSPHRDPAPRGPARFLPLPGLPPALPEPPGILAPQPPDVGSSDPLSRVGPSQGRSPSYAS
notes: human FGF21, mature polypeptide (NM_019113); also called M196R; source: HEK293-EBNA1, transiently transfected, purified (protein A); not shown: Fc (human), N-terminal, kept
B10: mature human FGF21 (ligand, UniProt Q9NSA1 29-209, looked up)
chain: HPIPDSSPLLQFGGQVRQRYLYTDDAQQTEAHLEIREDGTVGGAADQSPESLLQLKALKPGVIQILGVKTSRFLCQRPDGALYGSLHFDPEACSFRELLLEDGYNVYQSEAHGLPLHLPGNKSPHRDPAPRGPARFLPLPGLPPALPEPPGILAPQPPDVGSSDPLSMVGPSQGRSPSYAS
modifications: biotin (EZ-Link Sulfo-NHS-LC-Biotin) in the solid-phase binding assay; biotinylated as the labelled ligand in AlphaScreen
notes: human FGF21, mature protein; also called native FGF21

target: T1, human β-Klotho extracellular domain …; assay: BLI; Octet RED; biotinylated β-Klotho ECD 6×His (10 µg/mL) loaded on streptavidin biosensors; FGF21 or Fc-FGF21 associated 5 min, dissociated 5 min in kinetics buffer; 1:1 binding model; conditions: both partners purified

Binder | fold increase in affinity over native FGF21 [fold]
B1 | 4

target: T1, human β-Klotho extracellular domain …; assay: ELISA; solid-phase binding assay: WT β-Klotho captured from CHO-EBNA1 conditioned media by plate-coated anti-β-Klotho antibody; purified Fc-FGF21 titrated, 1.5 h room temperature; detected with anti-human IgG Fc-HRP; conditions: one partner purified

Binder | fold increase in EC50 compared to WT [fold]
B2 | > 100
B3 | > 100
B4 | > 100
B5 | > 100
B6 | > 100
B7 | > 100
B8 | > 100
B9 | > 100

target: T1, human β-Klotho extracellular domain …; assay: ELISA; solid-phase binding assay: β-Klotho (500 ng/mL) captured from CHO-EBNA1 conditioned media by plate-coated mouse anti-human β-Klotho antibody; biotinylated FGF21 titrated, 1.5 h room temperature; streptavidin-HRP; three-parameter logistic fit; conditions: one partner purified

Binder | EC50 [nM]
B10 | 3.98
